Assay results: PMC4555475

Tests used:
[1] = target: KpBest, bacterial homolog of human bestrophin 1 (not stated (bacterial))
[2] = target: voltage-gated Ca^2+ channel complex; assay: FRET or BRET

Row | stoichiometry N [2] | Substance | stoichiometry N [1]
1 | – | KpBest, bacterial homolog of human bestrophin 1 (natural protein) | 5
2 | 1 | calmodulin (from UniProt P0DP23 1-149) (natural protein) | –
